The conditions of test [1]: compared with MMDX and doxorubicin; cited from earlier work.
For test [2], the system named is 18 human tumor cell lines. Conditions: average against 18 human tumor cell lines; cited from earlier work.
Test [3] addresses T1, human TF extracellular domain protein (TF-ECD, Met 1-Glu 251) (human, UniProt P13726 33-251).
T1 construct: range 1-251; also called human TF-ECD; not shown: His tag (protein captured on an NTA sensor as 'FDYKSD-01-His')
Description: ForteBio OCTET R2 (called SPR), method of Example 2.

For test [4], the target named is T2, TF on the surface of tumor cells (MDA-MB-231, HPAF-II, HCC1806, BxPC3, HCC44, PC9, H1975 and other … (UniProt P13726 33-295, limits assumed)).
T2 construct: whole, on cells; the cell lines are human tumour lines; also called TF on cell surface; tumor cell surface TF
Briefly: flow cytometry on MDA-MB-231 cells, PE-labeled secondary antibody.

Test [5] concerns the target T1, human TF extracellular domain protein …. Briefly: ForteBio OCTET R2; His-tagged antigen on NTA sensor, nanobody-Fc 25-1.56 nM in solution, 25°C.
The test system of test [6] is HCC1954 mammary pad xenograft. Briefly: HCC1954 mammary pad xenograft experiment. It is filed as in vivo. To be noted: once a week, twice in total.
For test [7], the system named is KRAS^G12D pancreatic cancer HPAF-II xenograft tumor. Briefly: Pancreatic cancer HPAF-II xenograft model. It is filed as in vivo, Balb/c nude mice. To be noted: 3 mg/kg, single-dose, tail vein. As to the method:
Pancreatic ductal adenocarcinoma (PDAC) HPAF-II cells in logarithmic growth phase were subcutaneously inoculated into the bank of 5-week-old female Balb/c nude mice (purchased from Shanghai Sippr-BK Laboratory Animal Co., Ltd.) at a density of 2.5×10^6 cells per 200 µL serum-free medium. When tumor volume reached 100-200 mm^3, animals were randomly grouped, 8 tumors per group. The preferred TF-NDCs such as 4-A02-MMAE, 4-A02-ABD-MMAE were administered via tail vein injection at 3 mg/kg or 1 mg/kg on the day of grouping, with hIgG1-MMAE as the negative control. Only one dose was administered throughout the experiment. Tumor volume and mouse body weight were measured twice a week to plot growth curves. Tumor volume (V) was calculated using the formula: V = 1/2 × a × b^2, where a and b represent tumor length and width, respectively.

On to `COc1cccc2c1C(=O)c1c(O)c3c(c(O)c1C2=O)C[C@@](O)(C(=O)CO)C[C@@H]3O[C@H]1C[C@H]2[C@H](O[C@@H]3[C@@H](OC)OCCN32)[C@H](C)O1` [PNU-159682], for which the increase in activity in test [1] is given as 3000 folds. Regarding `CN[C@H](C(=O)N[C@H](C(=O)N(C)[C@H](/C=C(\C)C(=O)O)C(C)C)C(C)(C)C)C(C)(C)c1ccccc1` [Taltobulin], the IC50 in test [2] was 2.5 nM.

B1: original nanobody 4A02 (parental antibody 4A02, as comparator in Examples 11 and 12) (Fc fusion)
VHH: QVQLVESGGGLVQPGGSLSLSCTASETISSTYIMGWHRRSPGKERELVAVISGDGVTHYADFVKGRFVISRDNAKNAVYLKMNFLTPEDTAVYYCYAAGRWNHWGQGTQVTVSS
notes: not shown: Fc segment of the comparator
Regarding B1, binding in test [3] was characterised by a dissociation constant (Kd) of 0.29 nM.

B2: 5-H3-FC1 (chimeric nanobody: 5-H3 VHH fused with human Fc mutant fragment FC1) (Fc fusion)
chain: QVQLVESGGGLVQPGGSLRLSCVASGFTLANYAIGFYRRAPGKGREGVSCISRSDGDTYHVDSVKGRFTVSRDNAKNTAYLQMNSLVPEDTGVYYCRATEWCGVQDPHGYWGQGTQVTVSSEPKSSDKTHTCPPCPAPEFEGGPSVFLFPPKPKDTLMISRTPEVTCVVVDVSHEDPEVKFNWYVDGVEVHNAKTKPREEQYNSTYRVVSVLTVLHQDWLNGKEYKCKVSNKALPASIEKTISKAKGQPREPQVYTLPPSRDELTKNQVSLTCLVKGFYPSDIAVEWESNGQPENNYKTTPPVLDSDGSFFLYSKLTVDKSRWQQGNVFSCSVMHEALHNHYTQKSLSLSPGK
notes: built from the VHH and FC1
In turn, B2 registered a half-maximal effective concentration (EC50) in test [4] of 0.25 µg/mL. The dissociation constant (Kd) in test [5] was 0.45 nM.

B3: 4-A02-DXd (conjugate)
chain: QVQLVESGGGLVQPGGSLSLSCTASETISSTYIMGWHRRSPGKERELVAVISGDGVTHYADFVKGRFVISRDNAKNAVYLKMNFLTPEDTAVYYCYAAGRWNHWGQGTQVTVSSEPKSSDKTHTCPPCPAPEFEGGPSVFLFPPKPKDTLMISRTPEVTCVVVDVSHEDPEVKFNWYVDGVEVHNAKTKPREEQYNSTYRVVSVLTVLHQDWLNGKEYKCKVSNKALPASIEKTISKAKGQPREPQVYTLPPSRDELTKNQVSLTCLVKGFYPSDIAVEWESNGQPENNYKTTPPVLDSDGSFFLYSKLTVDKSRWQQGNVFSCSVMHEALHNHYTQKSLSLSPGK
Take B3: in test [6] (10 mg/kg intravenous), the “inhibition of tumor growth” value was “significant inhibition of tumor growth and caused tumor regression”.

B4: 4-A02-ABD-MMAE: NDC of 4-A02-ABD (monomer) coupled to mc-vc-MMAE, DAR1 (conjugate)
chain: QVQLVESGGGLVQPGGSLSLSCTASETISSTYIMGWHRRSPGKERELVAVISGDGVTHYADFVKGRFVISRDNAKNAVYLKMNFLTPEDTAVYYCYAAGRWNHWGQGTQVTVSSGGGGSGGGGSGGGGSQHDEAVDANSLAEAKVLANRELDKYGVSDYYKNLINNAKTVEGVKALIDEILAALPAAACAAAHHHHHH
In the case of B4, in test [6] (3 mg/kg intravenous), the “inhibition of tumor growth” value was “significant inhibition of tumor growth and caused tumor regression”. Moreover, in test [7], the “anti-tumor effect (tumor volume)” value is listed as “complete tumor regression”.

B5: F1-A01-FC1 (chimeric nanobody: F1-A01 VHH fused with human Fc mutant fragment FC1) (Fc fusion)
chain: EVQLVESGGGLVQAGGSLRLSCAASGRAFSAYAMGWFRQAPGKEREFVAAISWSGGSTYYADSVRGRFTISRDNTKNTVYLQMNSLKPEDTAVYYCNADSLLSLLDGSRGGPGTDSGSWGQGTQVTVSSEPKSSDKTHTCPPCPAPEFEGGPSVFLFPPKPKDTLMISRTPEVTCVVVDVSHEDPEVKFNWYVDGVEVHNAKTKPREEQYNSTYRVVSVLTVLHQDWLNGKEYKCKVSNKALPASIEKTISKAKGQPREPQVYTLPPSRDELTKNQVSLTCLVKGFYPSDIAVEWESNGQPENNYKTTPPVLDSDGSFFLYSKLTVDKSRWQQGNVFSCSVMHEALHNHYTQKSLSLSPGK
notes: it is built from the VHH and FC1 as in 4-A02-FC1
B5 displayed a concentration for a half-maximal effect (EC50) in test [4] of 0.75 µg/mL. In test [5], this molecule gave a Kd of 4.37 nM.

Values taken from patent EP4696714A1, “PREPARATION METHOD FOR NANOBODY TARGETING TISSUE FACTOR AND CONJUGATE AND USE THEREOF” (Fudan University, priority 2023, dated 2024).
